Experimental findings from patent publication US20240425607A1, “IL-18BP ANTAGONIST ANTIBODIES AND THEIR USE IN MONOTHERAPY AND COMBINATION THERAPY IN THE TREATMENT OF CANCER” (Compugen Ltd., priority 2023, published 2024) are described below.

Experiment [1] concerns the target T1, human IL18BP-Fc binding to human IL-18 (Homo sapiens, UniProt O95998).
T1 sequence (O95998 31-194): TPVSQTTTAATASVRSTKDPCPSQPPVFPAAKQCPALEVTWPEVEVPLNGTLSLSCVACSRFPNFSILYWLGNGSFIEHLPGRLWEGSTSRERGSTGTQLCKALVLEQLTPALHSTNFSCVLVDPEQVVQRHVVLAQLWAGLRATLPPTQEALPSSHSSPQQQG
The experiment is described as follows: Blocking of hIL18BP-hIL-18 interaction by ELISA, IL18BP plate bound. Particulars: 1 ng/ml human IL-18, compared with clone W19089C. How it is done: This assay was utilized to identify anti-human IL18BP Abs that inhibit the binding interaction between human IL18BP- and its counterpart, human IL-18. […] Human IL18BP-Fc protein was coated on the wells of a high binding plate overnight at 4° C. (1 μg/ml, 100 μl/well volume). Plates were washed three times with PBS-T buffer (1×PBS pH 7.4, 0.05% Tween20) incubated with 250 μL blocking buffer (2.5% skim milk in PBS) at room temperature (RT) for 2 hr. Blocking buffer was removed and plates were washed three times with PBS-T buffer. Plate-bound ligands were incubated with anti-human IL18BP Abs in 1% BSA in PBS buffer two times serially diluted (2.5-0.019 μg/ml, 100 μL/well volume) at RT for 1 h. Plates were washed one time with PBS. Plate-bound ligands were incubated with human IL-18 (cat. 9124-IL, R&D) in 1% BSA in PBS buffer (1 ng/ml, 100 μL/well volume) at RT for 1 h. Plates were washed three times with PBS-T (0.05% Tween20 in PBS). Biotinylated anti-IL18 detection antibody, cat. D045-6, R&D 1:1000 in 1% BSA in PBS buffer was added (100 μL/well). This was incubated at RT for 1 hr, and plates were washed again. Peroxidase Streptavidin, Jackson, cat. 016-030-084 1:1000 in 2.5% skim milk in PBS was added (100 μL/well) for 1 hr at RT. […] The HRP reaction was stopped by adding 50 μL 1N HCl and absorbance signals at 450 nm were read on a luminescence Reader-EnSpire (Perkin Elmar). […]

Experiment [2] addresses T2, recombinant human IL18-BP (Homo sapiens, UniProt O95998).
T2 construct: purchased R&D systems 119-BP
T2 sequence (O95998 31-194): T1 sequence (O95998 31-194)
The experiment is described as follows: MEL624:TIL assay. The class given is cell-based. The note with it: rhIL-18 30 ng/ml + rhIL-18BP 1 μg/ml, vs isotype control. How it is done: Human MEL624 cells were thawed and grown in DMEM with 10% FBS, 1% Glutamax, 1% Penicillin-Streptomycin Solution and 1% HEPES buffer. The cells were then seeded at 75 k cells/well in a 96 well plate in the assay medium (IMDM with 10% human serum, 1% Glutamax, 1% MEM eagle, 1% Sodium Pyruvate and 1% Penicillin-Streptomycin Solution) and incubated 1 hour in 37° C., 5% CO2 incubator before co-culture with human tumor infiltrating lymphocytes that were previously expanded using known melanoma antigens (TILs). Human TILs were thawed in full TIL media and 75 k cells/well were co-cultured with the MEL624 cells to create an effector: target ratio of 1:1. The co-cultured cells were then treated with rhIL-18 (30 ng/ml) and rhIL-18BP (1 μg/ml) for 30 min in 37° C., 5% CO2 incubator to allow IL-18:IL-18BP complex formation. After 30 minutes, anti-human IL-18BP mAb (ADI-71722, dose titration, 30 μg/ml-0.01 μg/ml, dilution factor of 1:3) or relevant isotype control (hIgG1 30 μg/ml) were added to the co-culture to examine its capability to restore IL-18 activity. Cells and all added solutions were prepared in full assay medium to a final volume of 200 μl/well. Plates were incubated for 24 hours in 37° C., 5% CO2 incubator, after which the supernatant was collected for cytokine secretion evaluation. All tests were done in triplicates and each repeated with TIL four donors. […]

The target of the next experiment is T3, endogenous IL-18BP (Homo sapiens, UniProt O95998).
T3 construct: endogenous in cells; host or cells: MEL624 cells and human TILs
T3 sequence (O95998 31-194): T1 sequence (O95998 31-194)
The experiment is described as follows: TIL:MEL624 co-culture with endogenous IL-18BP levels. The class given is cell-based. The note with it: 5 μg/ml; IL-18 3.7 ng/ml, no added IL-18BP; 18 hours; vs isotype. How it is done:
A. Schematic representation of assay setup. MEL624 cells were co-cultured with human TILs that were previously enriched for MART1 or gp100 peptide-specific clones. […] The co-culture was set for 18 hours following which IFNg levels were measured in supernatants. […] Representative examples from two TIL donors are shown.

B1: ADI-71739: anti-IL18-BP antibody, sequences in FIG. 2K; 66716 lineage (antibody, V domains shown)
VH: QLQLQESGPGLVKPSETLSLTCTVSGGSISSPDYPWGWIRQPPGKGLEWIGSIYYQGATYYNPSLKSRVTISVDTSKNQFSLKLSSVTAADTAVYYCARGPYRQLFDYWGQGTLVTVSS
VL: DIQMTQSPSSVSASVGDRVTITCRASQGISSWLAWYQQKPGKAPKLLIYAASSLQSGVPSRFSGSGSGTDFTLTISSLQPEDFATYYCQQGSVFPYTFGGGTKVEIK
Take B1: in experiment [1], the “Blocking effect on binding of human IL18BP to human IL-18” value is listed as “superior to Biolegend Ab”. Further, the “IFNγ secretion from TILs” value in experiment [2] is listed as “increase IFNγ secretion from TILs”. Besides, the “IFNg release by tumor infiltrating lymphocytes” value in the experiment with endogenous IL-18BP is on record as “increased IFNg release”.
